Data set [1] deals with T1, annexin 2 (Homo sapiens, UniProt P07355 SEQ:2-339). As to the kind of experiment: MDA-MB-231 cells, Scatchard; Cmax 167 pM. To be noted: label: 32P, phycoerythrin, Alexa Fluor 546, biotin or Quantum Dot depending on assay; predicted secondary structure with potential pseudoknots. The method, then: (§1) The binding curves were obtained for each cell type. On the basis of the specific binding, and using the Scatchard representation, the Kd and the number of targets per cell were determined for each of the cell types. The target of the ACE8 aptamer appears to be highly abundant at the surface of two human cancer lines (MCF-7 and A-431).
T1 sequence (P07355 2-339): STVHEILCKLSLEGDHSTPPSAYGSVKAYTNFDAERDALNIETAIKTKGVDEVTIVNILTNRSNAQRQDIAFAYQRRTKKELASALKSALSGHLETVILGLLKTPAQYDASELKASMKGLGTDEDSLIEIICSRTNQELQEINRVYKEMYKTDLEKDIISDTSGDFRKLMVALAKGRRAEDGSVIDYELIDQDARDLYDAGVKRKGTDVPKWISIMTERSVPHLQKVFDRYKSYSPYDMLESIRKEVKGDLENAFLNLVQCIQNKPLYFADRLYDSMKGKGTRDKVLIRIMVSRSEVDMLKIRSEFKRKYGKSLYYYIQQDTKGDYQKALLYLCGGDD

Data set [2] addresses T1, annexin 2. As to the kind of experiment: A-431 cells, Scatchard; Cmax 450 pM. Particulars: label: 32P, phycoerythrin, Alexa Fluor 546, biotin or Quantum Dot depending on assay; predicted secondary structure with potential pseudoknots. As to the method:
as §1

The target of data set [3] is T1, annexin 2. Nature of the data set: HEK-293 cells, Scatchard; Cmax 269 pM. Particulars: label: 32P, phycoerythrin, Alexa Fluor 546, biotin or Quantum Dot depending on assay; predicted secondary structure with potential pseudoknots.
Data set [4] concerns the target annexin 2/S100A10 heterotetrameric complex (Bos taurus, UniProt P04272;P60902 P04272:2-339,P60902:2-97). Nature of the data set: filter; 0-12.5 nM protein, 1 pmol RNA in 200 ul RPMI 1640, 3 ug yeast tRNA, ambient temperature; very strong affinity compared with control. Particulars: tags: purified from bovine lung, Interchim A80109B; chain copies: 2 annexin 2 + 2 S100A10 (stated); label: 32P, phycoerythrin, Alexa Fluor 546, biotin or Quantum Dot depending on assay; predicted secondary structure with potential pseudoknots. The method, then: 1 pmol of ACE8 aptamer or of the control sequence was then preincubated with various concentrations of an annexin 2/S100A10 heterotetrameric complex. The fraction of ACE8 aptamer or of control sequence bound to the annexin 2/S100A10 heterotetramer was retained on a nitrocellulose filter and analyzed and quantified using a Storm Phosphorimager. […] FIG. 23 represents the quantification of the amount of oligonucleotides retained on the filter as a function of the concentration of annexin 2/S100A10 heterotetramer.
For this, the oligonucleotides (ACE8 aptamer or control sequence (SEQ ID NO: 11)) were dephosphorylated at their 5′ end for 30 min at 37° C. with 2.5 U of Antarctic Phosphatase (New-England Biolabs) per nmol of 2′F-Py RNA. After inactivation of the enzyme at 88° C. for 15 min, the 2′F-Py RNA was precipitated with ethanol in the presence of 5 μl/ml of a neutral coprecipitant (Linear Polyacrylamide or LPA) (Ambion). The oligonucleotides were then labeled with ATP [gamma-³²P] using T4 kinase (invitrogen) according to the supplier's instructions. The 2′F-Py RNAs (2.3 MBq, i.e. 63nCi/pmol or 63nCi/pmol⁻¹) were subsequently purified by exclusion chromatography (Bio-Spin Sp30 Chromatography Columns (Biorad)). […]

Data set [5] concerns the target T1, annexin 2. Nature of the data set: U87-MG cells, Scatchard; Cmax 245 pM. Particulars: label: 32P, phycoerythrin, Alexa Fluor 546, biotin or Quantum Dot depending on assay; predicted secondary structure with potential pseudoknots.

Sequence of annexin 2/S100A10 heterotetrameric complex (P04272 2-339, chain 1 of 2): as the sequence (P07355 2-339) above, with A65E, I159V, P222C, D229E, R244K, R308K counted along it
Sequence of annexin 2/S100A10 heterotetrameric complex (P60902 2-97, chain 2 of 2): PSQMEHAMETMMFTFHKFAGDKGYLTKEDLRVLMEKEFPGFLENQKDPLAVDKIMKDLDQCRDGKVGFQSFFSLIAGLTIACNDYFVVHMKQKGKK

B1: ACE8 (ssRNA)
RNA: GGGAGAUGAUCCGUUGAUGCGAGGGAACGCAAGAACUGAGGCCAUGAGGCGCCUUCCCUUGCUCAGGACGCAAGUCGUCGUUCGUAGGCAGAAUC
modifications: 2'-F pyrimidines, 2'-OH purines
For orientation: Kd means the constant that tells how readily two partners part at equilibrium. For B1, the Kd in data set [1] was 4.4 nM; in data set [2], 5.3 nM; in data set [3], 4.4 nM; in data set [5], 12.7 nM. The binding result in data set [4] is given as “binds”.

Values taken from US20130266515, “Specific Ligand for Annexin 2” (Commissariat A L'Energie Atomique ET AUX Energies …, published 2013).
